# Assays:
# FcRn receptor = experiment: SPR (Biacore T200), FcRn on CM5 chip, steady state analysis, pH 6.0; pH 6.0
# [1] = target: CD3 on the cell surface of Jurkat E6.1 cells (UniProt P07766); experiment: flow cytometry on Jurkat E6.1 cells, 0.32 nM antibody, anti-IgG1-PE; negative control
# [2] = target: CD3 on the cell surface of Jurkat E6.1 cells (UniProt P07766); experiment: flow cytometry on Jurkat E6.1 cells, 100 nM antibody, anti-IgG1-PE; negative control
# [3] = target: CD3 on the cell surface of Jurkat E6.1 cells (UniProt P07766); experiment: flow cytometry on Jurkat E6.1 cells, 31.6 nM antibody, anti-IgG1-PE; negative control
# [4] = target: CD3 on the cell surface of Jurkat E6.1 cells (UniProt P07766); experiment: flow cytometry on Jurkat E6.1 cells, 3.16 nM antibody, anti-IgG1-PE; negative control
# [5] = target: CD3 on the cell surface of Jurkat E6.1 cells (UniProt P07766); experiment: flow cytometry on Jurkat E6.1 cells, 1000 nM antibody, anti-IgG1-PE; negative control
# [6] = target: CD3 on the cell surface of Jurkat E6.1 cells (UniProt P07766); experiment: flow cytometry on Jurkat E6.1 cells, 1 nM antibody, anti-IgG1-PE; negative control
# [7] = target: CD3 on the cell surface of Jurkat E6.1 cells (UniProt P07766); experiment: flow cytometry on Jurkat E6.1 cells, 316 nM antibody, anti-IgG1-PE; negative control
# [8] = target: CD3 on the cell surface of Jurkat E6.1 cells (UniProt P07766); experiment: flow cytometry on Jurkat E6.1 cells, 10 nM antibody, anti-IgG1-PE; negative control
# Chain of CD3 on the cell surface of Jurkat E6.1 cells (P07766 23-207): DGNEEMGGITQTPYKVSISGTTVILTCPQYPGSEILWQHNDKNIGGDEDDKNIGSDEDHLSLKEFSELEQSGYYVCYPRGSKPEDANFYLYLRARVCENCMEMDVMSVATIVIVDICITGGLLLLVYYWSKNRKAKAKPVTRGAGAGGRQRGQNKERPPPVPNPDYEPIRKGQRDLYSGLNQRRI
Kd (FcRn receptor),median fluorescence intensity [1],median fluorescence intensity [2],median fluorescence intensity [3],median fluorescence intensity [4],median fluorescence intensity [5],median fluorescence intensity [6],median fluorescence intensity [7],median fluorescence intensity [8],Substance
1.74 µM,,,,,,,,,Irrelevant IgG1 WT (antibody)
,58.3,55.5,58.7,55.4,66.4,56.5,55,60.8,Rituximab (antibody)

# From patent US20230190951A1, “CONJUGATES OF ANTIBODIES AN IMMUNE CELL ENGAGERS” (SYNAFFIX B.V., priority 2020, published 2023)
